Results from the Human Domainome abundance scans (Beltran et al. 2025).
± gives the uncertainty stated by the source.

B1: POU domain, class 2, transcription factor 2, residues 200 to 269; numbered along this chain, P09086 (parent)
chain: LEELEQFARTFKQRRIKLGFTQGDVGLAMGKLYGNDFSQTTISRFEALNLSFKNMCKLKPLLEKWLNDAE

Variants of: B1
Assay: abundance fitness (aPCA) (normalised: wild type 0, dead -1); higher = more abundant; growth selection in yeast, the domain comes from the species named
Details: Homo sapiens

| Variant | abundance fitness |
| --- | --- |
| L1T | 0.016 ± 0.18 |
| K64I | -0.158 ± 0.14 |
| K64W | -0.257 ± 0.072 |
| K64R | -0.054 ± 0.037 |
| K64P | -0.343 ± 0.067 |
| G34A | -0.071 ± 0.046 |
| G34N | -0.068 ± 0.09 |
| T21C | -0.212 ± 0.065 |
| T21H | -0.286 ± 0.12 |
| T21W | -0.633 ± 0.062 |
| T21I | -0.746 ± 0.14 |
| T21V | -0.573 ± 0.052 |
| T21S | -0.044 ± 0.042 |
| T21F | -0.625 ± 0.13 |
| T21Y | -0.77 ± 0.2 |
| G30F | -0.001 ± 0.056 |
| G30S | 0.061 ± 0.048 |
| G30I | -0.083 ± 0.07 |
| G30C | -0.068 ± 0.066 |
| D68V | -0.054 ± 0.043 |
| D68R | -0.022 ± 0.029 |
| D68W | -0.147 ± 0.06 |
| D68Y | -0.076 ± 0.074 |
| T10C | -0.084 ± 0.022 |

| Variant | abundance fitness |
| --- | --- |
| T10Q | 0.015 ± 0.019 |
| T10N | 0.012 ± 0.029 |
| T10R | -0.022 ± 0.017 |
| T10A | -0.035 ± 0.018 |
| T10I | -0.052 ± 0.027 |
| P60G | -0.016 ± 0.044 |
| P60A | -0.124 ± 0.044 |
| P60Y | -0.378 ± 0.082 |
| P60H | -0.216 ± 0.14 |
| F7W | -0.1 ± 0.046 |
| F7I | -0.397 ± 0.11 |
| F7C | -0.114 ± 0.052 |
| L66P | -0.719 ± 0.3 |
| L66C | 0.025 ± 0.084 |
| F11Q | -1.01 ± 0.23 |
| F11T | -0.495 ± 0.073 |
| F11K | -0.961 ± 0.25 |
| F11E | -0.977 ± 0.15 |
| F11N | -1.1 ± 0.4 |
| F11C | -0.143 ± 0.089 |
| N67D | -0.221 ± 0.22 |
| K31G | -0.047 ± 0.031 |
| K31M | -0.168 ± 0.051 |
| K31Q | -0.04 ± 0.055 |

| Variant | abundance fitness |
| --- | --- |
| K31P | -0.142 ± 0.059 |
| K31R | 0.002 ± 0.038 |
| K31H | -0.119 ± 0.093 |
| K31A | -0.019 ± 0.042 |
| K31S | -0.033 ± 0.061 |
| K31W | -0.246 ± 0.061 |
| N49Y | -0.249 ± 0.096 |
| N49L | -0.032 ± 0.034 |
| N49E | 0.07 ± 0.044 |
| N49V | -0.091 ± 0.032 |
| N49C | 0.012 ± 0.043 |
| N49I | -0.037 ± 0.059 |
| N49H | -0.018 ± 0.058 |
| R15V | -0.806 ± 0.062 |
| R15S | -1 ± 0.12 |
| R15I | -0.85 ± 0.19 |
| R15A | -0.977 ± 0.091 |
| R15W | -0.913 ± 0.086 |
| R15F | -0.99 ± 0.18 |
| R15N | -0.799 ± 0.13 |
| R15K | -1.08 ± 0.23 |
| R15Y | -0.243 ± 0.094 |
| R15H | -1.13 ± 0.39 |
| A69V | -0.084 ± 0.057 |

| Variant | abundance fitness |
| --- | --- |
| A69L | -0.034 ± 0.062 |
| A69Y | -0.107 ± 0.093 |
| A69S | -0.046 ± 0.051 |
| A69E | 0.009 ± 0.069 |
| L58P | -0.747 ± 0.12 |
| L58E | -0.478 ± 0.091 |
| L58K | -0.099 ± 0.06 |
| L58S | -0.228 ± 0.054 |
| L58F | 0.005 ± 0.095 |
| N54K | -0.017 ± 0.059 |
| N54R | -0.005 ± 0.042 |
| N54D | 0.101 ± 0.1 |
| N54I | -0.272 ± 0.12 |
| N54L | -0.097 ± 0.048 |
| N54H | 0.091 ± 0.091 |
| N54E | 0.058 ± 0.088 |
| N35S | -0.078 ± 0.04 |
| N35D | -0.095 ± 0.069 |
| N35E | 0.106 ± 0.055 |
| N35W | -0.026 ± 0.058 |
| N35A | -0.016 ± 0.05 |
| N35R | -0.022 ± 0.04 |
| T40C | -0.038 ± 0.063 |
| T40G | -0.036 ± 0.042 |

| Variant | abundance fitness |
| --- | --- |
| T40I | -0.285 ± 0.11 |
| T40Q | 0.009 ± 0.064 |
| L48C | 0.049 ± 0.061 |
| L48E | 0.014 ± 0.061 |
| L48A | 0.053 ± 0.053 |
| L48K | 0.07 ± 0.076 |
| L48M | -0.031 ± 0.089 |
| T41E | -0.029 ± 0.093 |
| T41W | -0.014 ± 0.059 |
| T41M | 0.04 ± 0.068 |
| T41Y | -0.078 ± 0.13 |
| T41K | -0.09 ± 0.027 |
| T41A | -0.048 ± 0.064 |
| T41S | -0.059 ± 0.058 |
| T41I | -0.108 ± 0.12 |
| K17Y | -0.121 ± 0.084 |
| K17T | -0.07 ± 0.063 |
| K17R | 0.006 ± 0.039 |
| G26P | -0.299 ± 0.05 |
| G26E | -0.023 ± 0.05 |
| G26Y | -0.085 ± 0.076 |
| G26F | -0.18 ± 0.084 |
| G26L | -0.064 ± 0.034 |
| G26T | -0.014 ± 0.052 |

| Variant | abundance fitness |
| --- | --- |
| E3R | -0.162 ± 0.034 |
| E3A | -0.123 ± 0.035 |
| E3V | -0.085 ± 0.054 |
| W65P | -0.433 ± 0.15 |
| W65S | -0.522 ± 0.11 |
| K12W | -0.337 ± 0.43 |
| K12I | 0.02 ± 0.29 |
| K12L | -0.232 ± 0.19 |
| C56F | -0.034 ± 0.052 |
| C56A | -0.022 ± 0.033 |
| C56T | 0.053 ± 0.042 |
| C56H | -0.082 ± 0.092 |
| C56G | -0.055 ± 0.029 |
| K53L | -0.015 ± 0.042 |
| K53F | -0.044 ± 0.054 |
| K53Q | 0.028 ± 0.045 |
| K53N | -0.236 ± 0.12 |
| K53P | -0.055 ± 0.055 |
| K53R | -0.022 ± 0.039 |
| K53S | 0.005 ± 0.043 |
| V25M | -0.291 ± 0.055 |
| V25I | -0.098 ± 0.1 |
| V25P | -0.915 ± 0.11 |
| D24T | -0.199 ± 0.075 |

| Variant | abundance fitness |
| --- | --- |
| D24W | -0.285 ± 0.045 |
| D24F | -0.158 ± 0.11 |
| D24H | -0.065 ± 0.076 |
| D24G | -0.113 ± 0.033 |
| E70T | -0.086 ± 0.089 |
| E70K | -0.128 ± 0.085 |
| E70S | 0.071 ± 0.084 |
| E70A | -0.047 ± 0.07 |
| E70P | -0.253 ± 0.22 |
| E70Y | -0.195 ± 0.11 |
| E46H | -0.944 ± 0.17 |
| E46V | -0.79 ± 0.08 |
| E46W | -1.02 ± 0.13 |
| E46I | -0.956 ± 0.18 |
| E46G | -0.942 ± 0.083 |
| E46Y | -0.994 ± 0.29 |
| L61C | 0.026 ± 0.048 |
| L61F | 0.05 ± 0.096 |
| L61S | -0.038 ± 0.04 |
| L61T | 0.008 ± 0.04 |
| L61P | -0.027 ± 0.032 |
| L61V | -0.064 ± 0.032 |
| G23E | -0.04 ± 0.05 |
